{"source": "patent US12428663B2", "about": "“Identification of DNA polymerase theta inactivation mechanism” (The Johns Hopkins University, priority 2018, dated 2025)", "molecules": {"B1": {"name": "wt28: wild type Pol θ catalytic core (residues 1792-2590) (protein, UniProt O75417 1792-2590, looked up, fragment)", "chain": "GFKDNSPISDTSFSLQLSQDGLQLTPASSSSESLSIIDVASDQNLFQTFIKEWRCKKRFSISLACEKIRSLTSSKTATIGSRFKQASSPQEIPIRDDGFPIKGCDDTLVVGLAVCWGGRDAYYFSLQKEQKHSEISASLVPPSLDPSLTLKDRMWYLQSCLRKESDKECSVVIYDFIQSYKILLLSCGISLEQSYEDPKVACWLLDPDSQEPTLHSIVTSFLPHELPLLEGMETSQGIQSLGLNAGSEHSGRYRASVESILIFNSMNQLNSLLQKENLQDVFRKVEMPSQYCLALLELNGIGFSTAECESQKHIMQAKLDAIETQAYQLAGHSFSFTSSDDIAEVLFLELKLPPNREMKNQGSKKTLGSTRRGIDNGRKLRLGRQFSTSKDVLNKLKALHPLPGLILEWRRITNAITKVVFPLQREKCLNPFLGMERIYPVSQSHTATGRITFTEPNIQNVPRDFEIKMPTLVGESPPSQAVGKGLLPMGRGKYKKGFSVNPRCQAQMEERAADRGMPFSISMRHAFVPFPGGSILAADYSQLELRILAHLSHDRRLIQVLNTGADVFRSIAAEWKMIEPESVGDDLRQQAKQICYGIIYGMGAKSLGEQMGIKENDAACYIDSFKSRYTGINQFMTETVKNCKRDGFVQTILGRRRYLPGIKDNNPYRKAHAERQAINTIVQGSAADIVKIATVNIQKQLETFHSTFKSHGHREGMLQSDQTGLSRKRKLQGMFCPIRGGFFILQLHDELLYEVAEEDVVQVAQIVKNEMESAVKLSVKLKVKVKIGASWGELKDFDV", "modifications": "catalytic core"}}, "system": "primer-template complex 5", "assay": "Steady-state kinetic analysis of dA incorporation in 5 by Pol θ variants (polymerase activity)", "type": "biochemical", "settings": "dA incorporation in 5, 25° C.", "protocol": "1.4.3. Steady-state kinetic analysis of dA incorporation in 5 by Pol θ. Polymerase reactions were conducted with Pol θ (432 pM for wild type Pol θ and 5 nM for K2383A and K2383R), 5′-^32P-5 (50 nM), and a range of dATP concentrations (0.25 μM-100 μM for wild type and 62.5-5000 μM for mutants) at 25° C. in reaction buffer (10 mM Tris HCl pH 8, 25 mM KCl, 10 mM MgCl2, 1 mM BME). The concentration range for dATP and the reaction time were selected so that reactions proceeded no further than 25% (single-hit conditions). In a typical experiment, a 2×DNApolymerase solution was prepared by mixing 5′-^32P-5 (500 nM, 18 μL), 10×reaction buffer (18 μL), 10×Pol θ (4.32 nM for wild type or 50 nM for mutants, 18 μL) in storage buffer (20 mM Tris HCl pH 7, 300 mM NaCl, 10% glycerol, 5 mM BME), and H2O (36 μL). The 2×DNAenzyme solution (3 μL) was mixed with the appropriate 2×dNTP solution (3 μL) to initiate the reaction. Reactions were incubated for 20 s for wild type Pol θ, 1.5 min for K2383R, and 4 min for K2383A, after which, they were quenched with 95% formamide loading buffer containing 25 mM EDTA (6 μL). An aliquot (4 μL) was analyzed by 20% denaturing PAGE run at 55 W for approximately 3.5 h. The gel was analyzed by phosphorimaging, and the data were fit to the Michaelis-Menten equation. The kcat was determined by dividing Vmax by the active concentration of enzyme. […]", "data": [{"molecule": "B1", "values": [{"measurement": "Km", "result": "5 ± 1", "unit": "µM"}, {"measurement": "kcat", "result": "1.08 ± 0.2", "unit": "s⁻¹"}]}]}
